Assay [1] addresses T1, hu PD1-ECD (human, UniProt Q15116 25-170).
T1 construct: SPR analyte; also called human PD1-ECD
The assay is described as follows: SPR; row head 'Affinity KD 37° C.'; first of two numbers. As for the experimental part: (§1) The samples were injected for 20 seconds with a concentration of 10 nM and bound to the second flow cell.

Assay [2] has as its target T1, hu PD1-ECD. The assay is described as follows: SPR (Biacore T200), antibody captured by anti-human IgG, hu PD1-ECD as analyte, 25 °C, 1:1 Langmuir fit. As for the experimental part: Therefore, an anti-human IgG was immobilized by amine coupling to the surface of a (Biacore) CM5 sensor chip. […] The sensor chip surface was regenerated after each analysis cycle. The equilibrium constant and kinetic rate constants were finally gained by fitting the data to a 1:1 langmuir interaction model.
as §1
Finally the double referenced data was fitted to a 1:1 Langmuir interaction model with the Biacore T200 Evaluation Software.

Assay [3] deals with T2, biotinylated PD1-ECD-AviHis (human, UniProt Q15116 25-170, biotinylated).
T2 construct: also called huPD1; hu PD1; not shown: Avi-His tag
Description: ELISA (hu PD1, as described above). The protocol: After washing (3×90 μl/well with PBST-buffer) 25 μl/well goat-anti-human H+L-POD (JIR, JIR109-036-088)/Sheep-anti-mouse-POD (GE Healthcare; NA9310) was added in 1:2000/1:1000 dilution and incubated at RT for 1 h on shaker. After washing (3×90 μl/well with PBST-buffer) 25 μl/well TMB substrate (Roche Catalogue No. 11835033001) was added and incubated until OD 2-3. Measurement took place at 370/492 nm.

In assay [4] the target is T3, biotinylated cynoPD1-ECD-Biotin (cynomolgus, UniProt B0LAJ3 25-170, biotinylated; the site and any Avi or His tag are not stated in the passages shown).
T3 construct: also called cyPD1
The assay is described as follows: ELISA on coated cynoPD1-ECD-Biotin. A general note: ELISA stands for enzyme-linked immunosorbent assay.

Assay [5] concerns the target T2, biotinylated PD1-ECD-AviHis. The assay is described as follows: ELISA on coated biotinylated PD1-ECD-AviHis.
Assay [6] has as its target T4, full-length human PD1 on cells (human, UniProt Q15116 25-288).
T4 construct: also called CHO-PD1
The assay is described as follows: cell ELISA on CHO-K1 cells expressing full-length human PD1. The protocol:
(to avoid internalization). After washing carefully (1×90 μl/well PBST) cells were fixed by adding 30 μl/well 0.05% Glutaraldehyde (Sigma, Cat.No: G5882, 25%) diluted in 1×PBS-buffer and incubated for 10 min at RT. After washing (3×90 μl/well PBST) 25 μl/well secondary antibody was added for detection: goat-anti-human H+L-POD (JIR, JIR109-036-088)/Sheep-anti-mouse-POD (GE NA9310) followed by 1h incubation at RT on shaker. After washing (3×90 μl/well PBST) 25 μl/well TMB substrate solution (Roche 11835033001) was added and incubated until OD 1.0-2.0. Plates were measured at 370/492 nm.

For assay [7], the target named is T1, hu PD1-ECD. The assay is described as follows: SPR; row head 'Affinity KD 37° C.'; second of two numbers, equal to the 25 °C value of Table 3.
In assay [8] the target is T3, biotinylated cynoPD1-ECD-Biotin. Description: ELISA on cyno PD1; row head 'cynomolgus crossreactivity (EC50 [nm])'.
The target in another assay is T5, biotinylated-Lag3 (UniProt P18627 23-450, limits assumed, biotinylated).
T5 construct: Probably a human LAG3 ECD construct; also called Lag3 (MHCII/ELISA)
T5 sequence (looked up): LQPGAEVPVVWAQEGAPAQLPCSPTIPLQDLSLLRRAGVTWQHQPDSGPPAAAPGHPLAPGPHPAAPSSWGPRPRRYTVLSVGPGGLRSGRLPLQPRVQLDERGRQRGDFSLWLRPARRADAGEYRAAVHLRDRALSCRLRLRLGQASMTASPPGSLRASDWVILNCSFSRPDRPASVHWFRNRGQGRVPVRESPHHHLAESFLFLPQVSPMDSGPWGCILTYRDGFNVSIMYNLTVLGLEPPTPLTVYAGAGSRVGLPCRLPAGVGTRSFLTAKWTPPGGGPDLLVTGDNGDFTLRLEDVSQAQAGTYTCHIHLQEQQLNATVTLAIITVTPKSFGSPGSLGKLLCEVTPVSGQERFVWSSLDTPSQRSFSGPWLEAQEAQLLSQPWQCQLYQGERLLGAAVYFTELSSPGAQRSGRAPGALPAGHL
Description: ELISA, inhibition of biotinylated-Lag3 binding to MHC-II on A375 cells (competitor MHC-II). The protocol:
25 μl/well of A375 cells (10000 cells/well) were seeded into tissue culture treated 384-well plates (Corning, 3701) and incubated at 37° C. overnight. […] After washing (1×90 μl in PBST) cells were fixed by addition of 30 μl/well glutaraldehyde to a final concentration of 0.05% (Sigma Cat.No: G5882), 10 min at room temperature. After washing (3×90 μl/well with PBST-buffer) 25 μl/well Poly-HRP40-Streptavidin (Fitzgerald, 65R-S104PHRPx) was added in a 1:2000 or 1:8000 dilution and incubated at RT for 1 h. After washing (3×90 μl/well with PBST-buffer) 25 μl/well TMB substrate (Roche, #11835033001) was added and incubated for 2 to 10 min. Measurement took place on a Tecan Safire 2 instrument at 370/492 nm.

In a further assay the target is T6, cynomolgus LAG3 on cells (cynomolgus).
T6 construct: whole, on cells; also called cyno-LAG-3; cynoLAG3
Description: flow cytometry on activated cynomolgus PBMC, 10 µg/ml (only 2nd Ab (hu): 7.62). The protocol: Thus, cynomolgus peripheral blood mononuclear cells (PBMC) were prepared from fresh cynomolgus blood and were then activated by CD3/CD28 pre-treatment (1 μg/ml) for 2-3 days. […] After staining, cells were washed two times with PBS/2% FCS and analyzed on a FACS Fortessa (BD).
For orientation: In flow cytometry, cells or beads pass a laser one at a time.

For assay [9], the target named is T7, LAG3 on cells (recombinant CHO cells expressing Lag3) (human, UniProt P18627 29-525).
T7 sequence: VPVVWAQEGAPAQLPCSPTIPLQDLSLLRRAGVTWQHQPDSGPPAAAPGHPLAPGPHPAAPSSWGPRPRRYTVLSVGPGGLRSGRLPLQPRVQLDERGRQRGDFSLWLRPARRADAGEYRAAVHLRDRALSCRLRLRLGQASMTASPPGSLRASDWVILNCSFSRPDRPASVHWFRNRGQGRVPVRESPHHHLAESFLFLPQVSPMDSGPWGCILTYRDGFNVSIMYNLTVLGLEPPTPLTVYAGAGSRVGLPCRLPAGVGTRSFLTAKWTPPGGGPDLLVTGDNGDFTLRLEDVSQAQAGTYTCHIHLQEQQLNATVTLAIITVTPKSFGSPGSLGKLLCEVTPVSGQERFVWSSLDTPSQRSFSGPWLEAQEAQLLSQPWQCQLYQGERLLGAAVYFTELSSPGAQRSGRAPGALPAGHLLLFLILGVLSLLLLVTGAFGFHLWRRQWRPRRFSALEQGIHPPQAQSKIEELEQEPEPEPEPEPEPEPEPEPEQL
The assay is described as follows: cell-based or functional assay.

T4 sequence (Q15116 25-288 limits assumed): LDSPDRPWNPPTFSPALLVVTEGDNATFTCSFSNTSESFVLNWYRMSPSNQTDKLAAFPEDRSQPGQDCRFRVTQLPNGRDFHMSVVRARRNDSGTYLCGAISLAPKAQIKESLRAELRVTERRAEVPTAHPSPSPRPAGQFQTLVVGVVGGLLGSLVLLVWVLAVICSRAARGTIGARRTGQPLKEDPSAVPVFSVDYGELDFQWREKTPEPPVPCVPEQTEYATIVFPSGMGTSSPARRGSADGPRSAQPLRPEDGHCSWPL
T3 sequence (B0LAJ3 entry or part of it limits assumed): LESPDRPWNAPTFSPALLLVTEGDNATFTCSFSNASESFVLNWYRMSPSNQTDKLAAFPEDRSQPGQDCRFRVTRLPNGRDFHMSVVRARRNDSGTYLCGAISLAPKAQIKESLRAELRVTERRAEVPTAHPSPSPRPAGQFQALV
T1 sequence (Q15116 25-170 limits assumed): as the sequence (B0LAJ3 entry or part of it limits assumed) above, with E2D, A10P, L19V, A35T, R75Q, A144T counted along it
T2 sequence (Q15116 25-170): as the sequence (B0LAJ3 entry or part of it limits assumed) above, with E2D, A10P, L19V, A35T, R75Q, A144T counted along it

B1: PD1-0103-0312 (antibody, human IgG1, V domains shown)
VH: EVQLLESGGGLVQPGGSLRLSCAASGFSFSSYTMSWVRQAPGKGLEWVATISGGGRDIYYPDSVKGRFTISRDNSKNTLYLQMNSLRAEDTAVYYCVLLTGRVYFALDSWGQGTLVTVSS
VL: DIVMTQSPDSLAVSLGERATINCKASESVDTSDNSFIHWYQQKPGQSPKLLIYRSSTLESGVPDRFSGSGSGTDFTLTISSLQAEDVAVYYCQQNYDVPWTFGQGTKVEIK
notes: Humanized; also called PD1-103-0312; PD-0103-0312
The term Kd denotes the free concentration of one partner at which half of the binding sites on the other are occupied at equilibrium, for simple one-to-one binding. By koff is commonly meant the rate constant with which the complex falls apart. Low values mean a long-lived complex, high ones a short-lived complex. Usually kon stands for the second-order rate constant of association. For orientation: EC50 means the concentration needed to bring the measured effect to its halfway point. Lower therefore signals an effect from little substance. On to B1, for which the Kd with hu PD1-ECD [1] was 1.5 nM; with hu PD1-ECD [2] it was 1.8 nM; with hu PD1-ECD [7], 1.8 nM. The off-rate (koff) with hu PD1-ECD [2] was 0.000345 s⁻¹. This molecule showed a kon in the assay with hu PD1-ECD [2] of 195000 M⁻¹ s⁻¹. The EC50 in assay [3] amounted to 0.1 nM; in assay [4], 0.0083 µg/mL; in assay [5], 0.011 µg/mL; in [6], 0.0101 µg/mL; in [8], 0.08 nM.

B2: PD1-0103-0314 (antibody, human IgG1, V domains shown)
VH: EVQLLESGGGLVQPGGSLRLSCAASGFSFSSYTMSWVRQAPGKGLEWVATISGGGRDIYYPDSVKGRFTISRDNSKNTLYLQMNSLRAEDTAVYYCVLLTGRVYFALDSWGQGTLVTVSS
VL: EIVLTQSPATLSLSPGERATLSCRASESVDTSDNSFIHWYQQKPGQSPRLLIYRSSTLESGIPARFSGSGSGTDFTLTISSLEPEDFAVYYCQQNYDVPWTFGQGTKVEIKR
notes: Humanized; also called PD1-103-0314; PD-0103-0314
With B2, the values for the Kd with hu PD1-ECD [1], with hu PD1-ECD [2] and with hu PD1-ECD [7] were 1.6 nM, 1.5 nM and 1.5 nM, respectively. Moreover, the koff with hu PD1-ECD [2] is 0.000279 s⁻¹. In the assay with hu PD1-ECD [2], this molecule showed an association rate constant (kon) of 187000 M⁻¹ s⁻¹. For the same molecule, the half-maximal effective concentration (EC50) in assay [3] was determined as 0.07 nM; in [4], 0.0083 µg/mL; in assay [5], 0.011 µg/mL; in assay [6] it was 0.0077 µg/mL; in assay [8], 0.05 nM.

B3: PD1-0103-0313 (antibody, human IgG1, V domains shown)
VH: EVQLLESGGGLVQPGGSLRLSCAASGFSFSSYTMSWVRQAPGKGLEWVATISGGGRDIYYPDSVKGRFTISRDNSKNTLYLQMNSLRAEDTAVYYCVLLTGRVYFALDSWGQGTLVTVSS
VL: DVVMTQSPLSLPVTLGQPASISCRASESVDTSDNSFIHWYQQRPGQSPRLLIYRSSTLESGVPDRFSGSGSGTDFTLKISRVEAEDVGVYYCQQNYDVPWTFGQGTKVEIK
notes: Humanized; also called PD1-103-0313; PD-0103-0313
In the case of B3, the Kd in the assay with hu PD1-ECD [1] is 1.9 nM; with hu PD1-ECD [2], 2.3 nM; with hu PD1-ECD [7], 2.3 nM. The off-rate constant (koff) with hu PD1-ECD [2] worked out at 0.000367 s⁻¹. In the assay with hu PD1-ECD [2], this molecule had a kon of 160000 M⁻¹ s⁻¹. Also, the concentration giving a half-maximal response (EC50) came to 0.07 nM in assay [3]; 0.011 µg/mL in assay [4]; 0.015 µg/mL in assay [5]; 0.0108 µg/mL in assay [6]; 0.06 nM in assay [8].

B4: humanized BAP050 (LAG525) (antibody, V domains shown)
VH: QIQLVQSGPELKKPGETVKISCKASGFTLTNYGMNWVRQTPGKGLKWMGWINTDTGEPTYADDFKGRFAFSLETSASTASLQINNLKNADTATYFCARNPPYYYGTNNAEAMDYWGQGTTVTVSS
VL: DIQMTQTTSSLSASLGDRVTISCSSSQDISNYLNWYQQKPDGTVKVLIYYTSTLHLGVPSRFSGSGSGTDYSLTISNLELEDIATYYCQQYYNLPWTFGQGTKVEIK
notes: also called aLAG3(BAP050)
The IC50 is the concentration needed to halve the response being measured. Molecule B4 had an IC50 in the assay with biotinylated-Lag3 of 1 nM. Moreover, the “% positive cyno cells (PBLs) after CD3/CD28 activation” value in the assay with cynomolgus LAG3 on cells stood at 50.7%. In [9], the “EC50 [nM] in Jurkat LAG3 + SED + Raji (NFAT luciferase), 2nd assay” value came out at 22.6 nM.
